The target of test [1] is hFcγRIIIa-158V-streptavidin-His (human, UniProt P08637 17-208). In words: BLI.
The target of test [2] is hFcγRIIIa-158F-streptavidin-His (human, UniProt P08637 17-208). In words: BLI.

Consider 4 molecules from patent US20240425612A1 (published 2024).

Sequence of hFcγRIIIa-158F-streptavidin-His (P08637 17-208): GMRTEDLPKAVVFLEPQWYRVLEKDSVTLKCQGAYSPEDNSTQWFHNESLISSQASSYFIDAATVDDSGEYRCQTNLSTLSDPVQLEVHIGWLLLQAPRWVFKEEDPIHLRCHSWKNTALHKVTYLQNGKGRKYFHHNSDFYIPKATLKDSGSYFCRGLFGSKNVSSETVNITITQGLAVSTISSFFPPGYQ
Sequence of hFcγRIIIa-158V-streptavidin-His (P08637 17-208 F176V): as the sequence (P08637 17-208) above, with F160V counted along it

B1: Trastuzumab-MFc2 (antibody)
Fc: DKTHTCPPCPAPELPGGPSVFLFPPKPKDTLMISRTPEITCVVVDVSHEDPEVKFNWYVDGVEVHNAKTKPREEQYNSTYRVVSVLTVLHRDWLNGKEYKCKVSNKALPAPEEKTISKAKGQPREPQVYTLPPSRDELTKNQVSLTCLVKGFYPSDIVVEWESNGQPENNYKTTPPVLDSDGSFFLYSKLTVDKSRWQQGNVFSCSVLHEALHNHYTQKSLSLSPGK
For B1, the Kd was 63.9 nM in test [1] and 56.8 nM in test [2].

B2: Trastuzumab-MFc3 (antibody)
Fc: DKTHTCPPCPAPELLGGPDVFLFPPKPKDTLMISRTPEVTCVVVDVSLEDPEVKFNWYVDGVEVHNAKTKPREEQYNSTYRVVSVLTVLHRDWLNGKEYKCKVSNKALPVPEEKTISKAKGQPREPQVYTLPPSRDELTKNQVSLTCLVKGFYPSDIAVEWESNGQPENNYKTTPPVLDSDGSFFLYSKLTVDKSRWQQGNVFSCSVLHEALHNHYTQKSLSLSPGK
For B2, the values for the Kd in test [1] and in test [2] were 32.4 nM and 38.5 nM, respectively.

B3: Trastuzumab-MFc5 (antibody)
Fc: DKTHTCPPCPAPELLGGPDVFLFPPKPMDTLMISRTPEVTCVVVDVSLEDPEVKFNWYVDGVEVHNAKTKPREEQYNSTYRVVSVLTVEHMDWLNGKEYKCKVSNKALPVPEEKTISKAKGQPREPQVYTLPPSRDELTKNQVSLTCLVKGFYPSDIAVEWESNGQPENNYKTTPPVLDSDGSFFLYSKLTVDKSRWQQGNVFSCSVLHEALHNHYTQKSLSLSPGK
B3: the Kd in test [1] was 85 nM; in test [2], 75.6 nM.

B4: Trastuzumab-MFc6 (antibody)
Fc: DKTHTCPPCPAPELPGGPDVFLFPPKPKDTLMISRTPEVTCVVVDVSHEYPEVKFNWYVDGVEVHNAKTKPREEQYNGTYRVVSVLTVLHRDWLNGKEYKCKVSNKALPAPEEKTISKAKGQPREPQVYTLPPSRGELTKNQVSLTCLVKGFYPSDIAVEWESNGQPENNYKTTPPVLDSDGSFFLYSKLTVDKSRWQQGNVFSCSVLHEALHNHYTQKSLSLSPGK
As to B4, the figures for the Kd in test [1] and in test [2] were 28.9 nM and 29.9 nM, respectively.
